According to patent publication US20210371491A1 (ALBERT LUDWIGS UNIVERSITAET FREIBURG, published 2021):

Target: prostate specific membrane antigen (PSMA) (UniProt Q04609 1-750, limits assumed)
Experiment: cell-based or functional assay

Sequence of prostate specific membrane antigen (PSMA) (Q04609 whole entry, form in doubt): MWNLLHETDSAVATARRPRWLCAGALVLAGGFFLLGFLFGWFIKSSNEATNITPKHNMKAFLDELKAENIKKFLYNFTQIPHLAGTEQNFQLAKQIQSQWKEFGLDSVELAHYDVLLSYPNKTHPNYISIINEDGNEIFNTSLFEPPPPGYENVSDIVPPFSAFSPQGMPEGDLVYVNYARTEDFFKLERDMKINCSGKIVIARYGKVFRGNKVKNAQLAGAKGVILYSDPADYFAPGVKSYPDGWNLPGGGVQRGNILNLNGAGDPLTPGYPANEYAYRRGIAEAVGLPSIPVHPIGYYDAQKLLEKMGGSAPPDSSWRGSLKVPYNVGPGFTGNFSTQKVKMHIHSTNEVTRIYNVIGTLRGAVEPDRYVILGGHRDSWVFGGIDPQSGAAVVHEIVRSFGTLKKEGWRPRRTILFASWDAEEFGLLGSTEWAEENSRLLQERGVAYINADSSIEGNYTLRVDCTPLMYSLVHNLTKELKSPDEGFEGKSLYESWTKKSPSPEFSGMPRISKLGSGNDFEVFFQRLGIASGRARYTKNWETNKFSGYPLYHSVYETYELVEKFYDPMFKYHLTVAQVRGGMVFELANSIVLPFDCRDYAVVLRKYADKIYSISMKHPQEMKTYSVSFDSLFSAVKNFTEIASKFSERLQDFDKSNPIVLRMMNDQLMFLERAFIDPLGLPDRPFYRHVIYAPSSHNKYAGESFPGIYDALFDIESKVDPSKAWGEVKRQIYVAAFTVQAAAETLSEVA

B1: CAR41, anti-PSMA CAR with 4-1BB co-stimulatory domain (scFv D7) (other)
chain: MDFQVQIFSFLLISASVIMSRMAQVQLQQSGAELVEPGASVKLSCKASGYTFTYFDINWLRQRPEQGLEWIGGISPGDGNTNYNENFKGKATLTIDKSSTTAYIQLSRLTSEDSAVYFCARDGNFPYYAMDSWGQGTSVTVSSAKTTPKLGGGGSGGGGSGGGGSARVDIELTQSPLSLPVILGDQASISCRSSQSLVHSNGNTYLHWFLQKPGQSPKLLIYTVSNRFSGVPDRFSGSGSGTDFTLKISRVEAEDLGVYFCSQSTHVPTFGGGTKLEIKRAAALPAEPKSPDKTHTCPPCPAPPVAGPSVFLFPPKPKDTLMIARTPEVTCVVVDVSHEDPEVKFNWYVDGVEVHNAKTKPREEQYNSTYRVVSVLTVLHQDWLNGKEYKCKVSNKALPAPIEKTISKAKGQPREPQVYTLPPSRDELTKNQVSLTCLVKGFYPSDIAVEWESNGQPENNYKTTPPVLDSDGSFFLYSKLTVDKSRWQQGNVFSCSVMHEALHNHYTQKSLSSLSPGKKIYIWAPLAGTCGVLLLSLVITLYCKRGRKKLLYIFKQPFMRPVQTTQEEDGCSCRFPEEEEGGCELLRVKFSRSADAPAYQQGQNQLYNELNLGRREEYDVLDKRRGRDPEMGGKPRRKNPQEGLYNELQKDKMAEAYSEIGMKGERRRGKGHDGLYQGLSTATKDTYDALHMQALPPR
cytotoxicity (XTT assay), PSMA expressing cells eliminated at E:T ratio 1:1: ≤ 90%

B2: CAR28, anti-PSMA CAR with CD28 co-stimulatory domain (scFv D7) (other)
chain: MDFQVQIFSFLLISASVIMSRMAQVQLQQSGAELVEPGASVKLSCKASGYTFTYFDINWLRQRPEQGLEWIGGISPGDGNTNYNENFKGKATLTIDKSSTTAYIQLSRLTSEDSAVYFCARDGNFPYYAMDSWGQGTSVTVSSAKTTPKLGGGGSGGGGSGGGGSARVDIELTQSPLSLPVILGDQASISCRSSQSLVHSNGNTYLHWFLQKPGQSPKLLIYTVSNRFSGVPDRFSGSGSGTDFTLKISRVEAEDLGVYFCSQSTHVPTFGGGTKLEIKRSDPAEPKSPDKTHTCPPCPAPPVAGPSVFLFPPKPKDTLMIARTPEVTCVVVDVSHEDPEVKFNWYVDGVEVHNAKTKPREEQYNSTYRVVSVLTVLHQDWLNGKEYKCKVSNKALPAPIEKTISKAKGQPREPQVYTLPPSRDELTKNQVSLTCLVKGFYPSDIAVEWESNGQPENNYKTTPPVLDSDGSFFLYSKLTVDKSRWQQGNVFSCSVMHEALHNHYTQKSLSLSPGKKDPKFWVLVVVGGVLACYSLLVTVAFIIFWVRSKRSRLLHSDYMNMTPRRPGPTRKHYQAYAAARDFAAYRSLRVKFSRSADAPAYQQGQNQLYNELNLGRREEYDVLDKRRGRDPEMGGKPRRKNPQEGLYNELQKDKMAEAYSEIGMKGERRRGKGHDGLYQGLSTATKDTYDALHMQALPPR
cytotoxicity (XTT assay), PSMA expressing cells eliminated at E:T ratio 1:1: ≤ 90% | cytotoxicity (XTT assay), target cells eliminated at E:T ratio 1:4, 48 h co-culture with C4-2 cells: ~90%
